Reference: patent US20200207850A1 (MacroGenics, published 2020)

Target: human CD3 (human, UniProt P07766 23-126)
Test: binding kinetics sensorgram (RU against time), panel labelled hCD3

human CD3, sequence (P07766 23-126): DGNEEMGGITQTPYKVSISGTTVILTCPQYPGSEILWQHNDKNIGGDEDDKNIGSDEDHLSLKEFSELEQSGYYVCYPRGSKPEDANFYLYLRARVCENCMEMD

B1: DART molecule having the CD3 mAb 2 Fast Binding Domain (bispecific antibody, V domains shown)
VH: EVQLVESGGGLVQPGGSLRLSCAASGFTFSTYAMNWVRQAPGKGLEWVGRIRSKYNNYATYYADSVKGRFTISRDDSKNSLYLQMNSLKTEDTAVYYCVRHKNFGNSYVTWFAYWGQGTLVTVSS
VL: QAVVTQEPSLTVSPGGTVTLTCRSSTGAVTTSNYANWVQQKPGQAPRGLIGGTNKRAPWTPARFSGSLLGGKAALTITGAQAEDEADYYCALWYSNLWVFGGGTKLTVLG
notes: also called anti-human CD3 mAb 2 Fast
A Kd of 13.9 nM was found for B1 in this work.
